This note sets out measurements from patent US20170204167A1.

A value given as a limit tells only on which side of the number the result lay.

The target of assay [1] is HA of H3N2 A/Brisbane/10/07 (influenza A virus H3N2 A/Brisbane/10/07). Put plainly: ELISA on HA. In general terms: In an ELISA, binding on a coated surface is turned into a signal by an enzyme label.
For assay [2], the target named is HA of B/Ohio/1/05 (influenza B virus B/Ohio/1/05). The assay can be described thus: ELISA on HA.
Assay [3] has as its target HA of H3N2 A/New York/55/04 (influenza A virus H3N2 A/New York/55/04). Put plainly: ELISA on recombinant or purified HA.
The target in assay [4] is HA of H3N2 A/Wyoming/3/03 (influenza A virus H3N2 A/Wyoming/3/03). Put plainly: ELISA on recombinant or purified HA.
Assay [5] has as its target HA of H3N2 A/Brisbane/10/07 (influenza A virus H3N2 A/Brisbane/10/07). The assay can be described thus: ELISA on recombinant or purified HA.
For assay [6], the target named is HA of H1N1 A/Brisbane/59/07 (influenza A virus H1N1 A/Brisbane/59/07). Put plainly: ELISA on recombinant or purified HA.

Usually EC50 stands for the concentration at which the effect is half-maximal.

B1: FI28 variant 1 (antibody, V domains shown)
VH: EVQLVESGGGAVQPGESLKLSCAASGFTFSNYGMHWVRQAPGKGLEWVAVISYDGSNKYYADSVKGRFTISRDNSKDTLYLQMNSLRAEDTALFYCAKERPLRLLRYFDWLSGGANDYWGQGTLVTVSS
VL: DIVMTQSPDSLAVSLGERATINCKSSQSVLYSSNNKNYLAWYQQKPGQPPKLLIDWASTRESGVPDRFSGSGSGTDFTLTISNLQVEDVAVYYCQQYYRSPSFGQGTKLEIK
For B1, the Binding to HA by ELISA (% of subtype specific control antibodies) in assay [1] is 1.3%.

B2: FI6 variant 2 (antibody, V domains shown)
VH: QVQLVQSGGGVVQPGRSLRLSCVASGFTFSTYAMHWVRQAPGRGLEWVAVISYDGNYKYYADSVKGRFSISRDNSNNTLHLEMNTLRTEDTALYYCAKDSQLRSLLYFEWLSQGYFDPWGQGTLVTVTS
VL: DIQMTQSPDSLAVSLGARATINCKSSQSVTFNYKNYLAWYQQKPGQPPKVLIYWASARESGVPDRFSGSGSGTDFTLTISSLQAEDVAVYYCQQHYRTPPTFGQGTKVEIK
Turning to B2, the EC50 was > 20 µg/mL in assay [2]; 0.032 µg/mL in assay [3]; 0.019 µg/mL in assay [4]; 0.041 µg/mL in assay [5]; 0.015 µg/mL in assay [6]. In addition, in assay [1], the Binding to HA by ELISA (% of subtype specific control antibodies) was 68.5%.
